This note sets out measurements from patent US7122382 (RIKEN, dated 2006).

First the molecules themselves.
B1: Fos (other, UniProt P01101 1-380, looked up)
chain: MMFSGFNADYEASSSRCSSASPAGDSLSYYHSPADSFSSMGSPVNTQDFCADLSVSSANFIPTVTAISTSPDLQWLVQPTLVSSVAPSQTRAPHPYGLPTQSAGAYARAGMVKTVSGGRAQSIGRRGKVEQLSPEEEEKRRIRRERNKMAAAKCRNRRRELTDTLQAETDQLEDEKSALQTEIANLLKEKEKLEFILAAHRPACKIPDDLGFPEEMSVASLDLTGGLPEASTPESEEAFTLPLLNDPEPKPSLEPVKSISNVELKAEPFDDFLFPASSRPSGSETSRSVPDVDLSGSFYAADWEPLHSNSLGMGPMVTELEPLCTPVVTCTPGCTTYTSSFVFTYPEADSFPSCAAAHRKGSSSNEPSSDSLSSPTLLAL
modifications: 35S-methionine label or biotinylated lysine, by its role in the assay
notes: Crude translation mix, not purified
B2: p53 (other, UniProt P02340 1-390, looked up)
chain: MTAMEESQSDISLELPLSQETFSGLWKLLPPEDILPSPHCMDDLLLPQDVEEFFEGPSEALRVSGAPAAQDPVTETPGPVAPAPATPWPLSSFVPSQKTYQGNYGFHLGFLQSGTAKSVMCTYSPPLNKLFCQLAKTCPVQLWVSATPPAGSRVRAMAIYKKSQHMTEVVRRCPHHERCSDGDGLAPPQHLIRVEGNLYPEYLEDRQTFRHSVVVPYEPPEAGSEYTTIHYKYMCNSSCMGGMNRRPILTIITLEDSSGNLLGRDSFEVRVCACPGRDRRTEEENFRKKEVLCPELPPGSAKRALPTCTSASPPQKKKPLDGEYFTLKIRGRKRFEMFRELNEALELKDAHATEESGDSRAHSSYLKTKKGQSTSRHKKTMVKKVGPDSD
modifications: 35S-methionine label or biotinylated lysine, by its role in the assay
B3: MB20 protein (function unknown, 2-10F) (other, mouse, UniProt Q794H2 1-544, looked up)
chain: MAEADPKMVTEPGAHGVAEEAMASTACDSGDESDSNSSSSTNSCSSSGSSSSGSSSSSSSSSSSSSSSSSSSSGSSGSSSNGSHLNRKKRVPEPSRRAQRRPSGKLFLDKLPQAVRNRVQALRNIQNECDKVDTLFLRAIHDLERKYAELNKPLYDKRFQIINAEYEPTEEECEWNSEEEFSGDEEMQDDTPNEMPPLEGEEEEESCNEKAEVKEEGTHVPEEVPEAKVEEEEAPKETPEVKTEEKDIPKEGAEEKAEEQESSKEIPEVKGEEKADSTDCIDIAPEEKEDVKEVTQANTENKDQPTEEFTPRAPAREAQKRVPETRPEEGVNIKRARKGKPKKEDPKGIPDYWLTVLKNVDKLGPMIQKCDEPILKFLSDVSLKFSNPGQPIGYTFEFHFLPNPYFRNELLMKTYIIRSKPDHYDPFFAWGWEIEECKGCKIDWRRGKDVTVTTTRSRPGITGEIEVQPRVVPNASFFNFFSPPEIPLIGKLEPREDAILDEDFEIGQILHDNVILKSIYYFTGEINDPYYHDFRDYGNRKYYK
modifications: 35S-methionine label or biotinylated lysine, by its role in the assay
notes: also called NAP1-like protein L3
B4: Jun (other, UniProt P05627 1-334, looked up)
chain: MTAKMETTFYDDALNASFLQSESGAYGYSNPKILKQSMTLNLADPVGSLKPHLRAKNSDLLTSPDVGLLKLASPELERLIIQSSNGHITTTPTPTQFLCPKNVTDEQEGFAEGFVRALAELHSQNTLPSVTSAAQPVSGAGMVAPAVASVAGAGGGGGYSASLHSEPPVYANLSNFNPGALSSGGGAPSYGAAGLAFPSQPQQQQQPPQPPHHLPQQIPVQHPRLQALKEEPQTVPEMPGETPPLSPIDMESQERIKAERKRMRNRIAASKCRKRKLERIARLEEKVKTLKAQNSELASTANMLREQVAQLKQKVMNHVNSGCQLMLTQQLQTF
modifications: 35S-methionine label or biotinylated lysine, by its role in the assay
B5: Caspase 6 (1-9E) (enzyme, mouse, UniProt O08738 1-276, looked up)
chain: MTETDGFYKSREVFDPAEQYKMDHKRRGVALIFNHERFFWHLTLPERRGTNADRDNLTRRFSDLGFEVKCFNDLRAEELLLKIHEVSTSSHIDADCFICVFLSHGEGNHVYAYDAKIEIQTLTGLFKGDKCQSLVGKPKIFIIQACRGSQHDVPVVPLDMVDHQTDKLDNVTQVDAASVYTLPAGADFLMCYSVAEGYYSHRETVNGSWYIQDLCEMLARYGSSLEFTELLTLVNRKVSQRRVDFCKDPDAIGKKQVPCFASMLTKKLHFCPKPSK
modifications: 35S-methionine label or biotinylated lysine, by its role in the assay

The series “Jun” addresses B4. Put plainly: biotinylated row protein on streptavidin beads, 35S column protein counted.
In the series “p53” the target is B2. The series is described as above.
In another series the target is SV40 large T (SV40, UniProt P03070 1-708). The series is described as above.
A further series concerns the target luciferase (UniProt P08659 1-550 = luciferase, 35S-methionine label or biotinylated lysine, by its role in the assay). Described as above.
Series [1] concerns the molecule itself. The description is as above.
The series “Fos” addresses B1. The description is as above.
In series [2] the target is T1, Bpx protein (nucleosome assembly protein homologue) (2-1H) (mouse, UniProt P51860 1-460, limits assumed, 35S-methionine label or biotinylated lysine, by its role in the assay).
T1 construct: also called NAP 1-like protein L2
T1 sequence (looked up): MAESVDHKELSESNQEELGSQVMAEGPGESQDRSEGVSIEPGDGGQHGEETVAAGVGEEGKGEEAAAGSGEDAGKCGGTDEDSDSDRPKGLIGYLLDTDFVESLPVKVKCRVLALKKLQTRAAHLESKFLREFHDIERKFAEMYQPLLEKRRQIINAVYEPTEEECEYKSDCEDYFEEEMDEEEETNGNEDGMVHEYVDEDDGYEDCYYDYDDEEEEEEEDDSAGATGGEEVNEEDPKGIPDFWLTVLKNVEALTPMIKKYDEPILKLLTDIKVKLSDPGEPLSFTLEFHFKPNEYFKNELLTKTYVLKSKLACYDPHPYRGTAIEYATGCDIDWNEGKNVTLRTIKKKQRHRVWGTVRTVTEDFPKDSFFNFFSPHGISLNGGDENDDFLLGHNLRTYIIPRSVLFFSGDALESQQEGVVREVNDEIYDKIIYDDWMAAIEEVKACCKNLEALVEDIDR
As to the kind of experiment: single proteins, rows taken as 35S-labelled and columns as biotinylated, streptavidin beads.

The target in the next series is 2-1F (mouse). Described as above.
A further series addresses 2-1G (mouse). Described as above.
The target of a further series is 2-1E (mouse). The description is as above.
The target in a further series is 2-10G (mouse). Described as above.
Another series addresses 2-10H (mouse). The series is described as above.
Series [3] concerns the molecule itself. Described as above.
The target of series [4] is DnaJ-like protein (Hsj2) (2-10E) (mouse, UniProt P63037 1-397, 35S-methionine label or biotinylated lysine, by its role in the assay). The description is as above.
Another series deals with 1-9H (mouse). The description is as above.
A further series addresses 1-9G (mouse). The series is described as above.
A further series addresses 1-9F (mouse). Described as above.
Series [5] concerns the molecule itself. The description is as above. The source holds these as a separate data set.

Where two headings read alike, the source gives them in different places.

Sequence of luciferase (P08659 whole entry): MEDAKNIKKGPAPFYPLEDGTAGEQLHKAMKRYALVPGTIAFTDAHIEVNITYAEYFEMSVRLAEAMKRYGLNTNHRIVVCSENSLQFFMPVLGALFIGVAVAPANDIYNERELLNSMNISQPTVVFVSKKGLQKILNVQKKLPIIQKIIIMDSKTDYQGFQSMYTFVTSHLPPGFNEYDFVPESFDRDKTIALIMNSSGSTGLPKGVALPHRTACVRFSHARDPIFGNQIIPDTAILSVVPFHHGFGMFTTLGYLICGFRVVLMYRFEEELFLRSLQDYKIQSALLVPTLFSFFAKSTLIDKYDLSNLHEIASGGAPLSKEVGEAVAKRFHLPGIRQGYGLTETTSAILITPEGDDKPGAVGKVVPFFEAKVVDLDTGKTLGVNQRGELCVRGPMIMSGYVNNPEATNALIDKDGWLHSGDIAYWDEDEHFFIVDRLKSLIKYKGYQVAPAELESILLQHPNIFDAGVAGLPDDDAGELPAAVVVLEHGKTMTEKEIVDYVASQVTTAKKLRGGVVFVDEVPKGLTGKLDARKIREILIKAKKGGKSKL

On to B1, for which the “RI (c.p.m.)” value with Jun turned out to be 675 c.p.m; with p53, 169 c.p.m; with SV40 large T it was 156 c.p.m; with luciferase it was 172 c.p.m; in series [1], 177 c.p.m.

For the molecule B2, the “RI (c.p.m.)” value in the series with Jun stood at 206 c.p.m; in the series with luciferase, 154 c.p.m; with Fos, 232 c.p.m.

As to B3, the “RI (cpm)” value in series [2] was 736 cpm; in the series with 2-1F, 60 cpm; in the series with 2-1G, 72 cpm; in the series with 2-1E, 60 cpm; with 2-10G, 67 cpm; in the series with 2-10H it was 98 cpm. Moreover, the “RI (cpm)” value amounted to 168 cpm in series [3] and 87 cpm in series [4].

In the case of B4, the “RI (c.p.m.)” value in the series with p53 came to 187 c.p.m; in the series with SV40 large T, 176 c.p.m; in the series with luciferase it was 131 c.p.m; in series [1] it was 204 c.p.m; in the series with Fos, 707 c.p.m.

B5: the “RI (cpm)” value with 1-9H is 37 cpm; in the series with 1-9G it was 36 cpm; with 1-9F, 32 cpm; in [5], 225 cpm.
